Measured values published in US20100249029A1 (Novo Nordisk, published 2010).
Where a chain is given by its changes, count along the chain named. Names and notes keep the numbering of the source.

Columns and labels:
[1] = biological target: T1, PRLR stably expressed on Ba/F3 cells (Ba/F3-PRLR) (UniProt P16471 25-622, limits assumed); test: cell-based or functional assay
T1 sequence (looked up): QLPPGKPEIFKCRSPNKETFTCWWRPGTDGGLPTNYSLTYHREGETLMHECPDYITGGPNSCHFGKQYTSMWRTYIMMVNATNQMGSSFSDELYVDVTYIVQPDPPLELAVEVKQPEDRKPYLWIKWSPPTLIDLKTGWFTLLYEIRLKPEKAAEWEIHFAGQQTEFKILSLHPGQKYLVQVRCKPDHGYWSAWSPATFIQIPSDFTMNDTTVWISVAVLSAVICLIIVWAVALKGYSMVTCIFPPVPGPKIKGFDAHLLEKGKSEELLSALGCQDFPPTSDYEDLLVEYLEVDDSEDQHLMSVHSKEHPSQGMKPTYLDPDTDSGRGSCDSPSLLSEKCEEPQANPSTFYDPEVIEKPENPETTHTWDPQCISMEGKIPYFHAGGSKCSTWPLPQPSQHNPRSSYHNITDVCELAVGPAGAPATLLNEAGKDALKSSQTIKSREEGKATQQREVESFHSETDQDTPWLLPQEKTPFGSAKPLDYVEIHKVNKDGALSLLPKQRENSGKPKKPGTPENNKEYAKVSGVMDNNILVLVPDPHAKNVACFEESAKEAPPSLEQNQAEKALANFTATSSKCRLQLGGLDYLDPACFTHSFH

[2] = biological target: T2, Biotinylated prolactin receptor BirATag-Ser-PRLR (1-210) (human, UniProt P16471 25-234, biotinylated (BirA tag, biotin added during expression in E. coli)); test: Biacore SPR, BirATag-Ser-PRLR (1-210) immobilised on a CM5 chip, PRL analogues 1.6-25 nM
T2 construct: range 1-210; also called BirA-Ser-PRLR (1-210); not shown: BirA tag (biotin acceptor tag)
T2 sequence: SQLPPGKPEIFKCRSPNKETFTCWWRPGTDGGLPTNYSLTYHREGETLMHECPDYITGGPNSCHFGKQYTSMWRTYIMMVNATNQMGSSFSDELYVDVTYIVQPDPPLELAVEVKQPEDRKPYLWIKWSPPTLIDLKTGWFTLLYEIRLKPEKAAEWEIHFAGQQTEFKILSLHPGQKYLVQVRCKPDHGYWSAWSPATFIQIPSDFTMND
Method: (§1) Biotinylated prolactin receptor BirATag-Ser-PRLR (1-210) was diluted to 20 μg/ml in 10 mM sodium acetate pH 4.0 (Biacore BR-1003-49) and immobilized on the CM5 chip (Biacore BR-1006-68) with the immobilization reagents 1-ethyl-3-(3-dimethylaminopropyl) carbodiimide hydrochloride (EDC), N-hydroxysuccinimide (NHS) and 1.0 M ethanolamine-HCl pH 8.5 (Biacore BR1000-50). The immobilization level was 1500 RU. The PRL analogues were diluted to a series of concentrations as following: 1.6/3.13/6.25/12.5/25 nM and run through the PRLR immobilized chip using HBS-EP (10 mM HEPES pH 7.4; 150 mM NaCl; 3 mM EDTA; 0.005% v/v Tween-20) as the running buffer under the following conditions: […]

[3] = biological target: T1, PRLR stably expressed on Ba/F3 cells …; test: cell-based or functional assay; remark: listed apart in the source
[4] = biological target: T2, Biotinylated prolactin receptor …; test: SPR (Biacore); biotinylated BirATag-Ser-PRLR (1-210) amine-coupled to CM5 chip, control injected at 3.13-50 nM; STDEV 1.63; one value under a double label
Method: as §1, with “on a” for “on the”, “PRL variants prepared as described in Example 5” for “PRL analogues”, “following: 3.13/6.25/12.5/25/50” for “following: 1.6/3.13/6.25/12.5/25”

[5] = biological target: T2, Biotinylated prolactin receptor …; test: SPR (Biacore); BirATag-Ser-PRLR (1-210) on CM5 chip, analogue injected at 1.6-25 nM (FIG. 5)
Method: as §1

[6] = biological target: T2, Biotinylated prolactin receptor …; test: SPR (Biacore); biotinylated BirATag-Ser-PRLR (1-210) amine-coupled to CM5 chip, variant injected at 3.13-50 nM; STDEV 0.17
Method: as §1, with “on a” for “on the”, “PRL variants prepared as described in Example 5” for “PRL analogues”, “following: 3.13/6.25/12.5/25/50” for “following: 1.6/3.13/6.25/12.5/25”

[7] = biological target: T2, Biotinylated prolactin receptor …; test: SPR (Biacore); biotinylated BirATag-Ser-PRLR (1-210) amine-coupled to CM5 chip, variant injected at 3.13-50 nM; STDEV 0.28
Method: as §1, with “on a” for “on the”, “PRL variants prepared as described in Example 5” for “PRL analogues”, “following: 3.13/6.25/12.5/25/50” for “following: 1.6/3.13/6.25/12.5/25”

B1: wild type human prolactin (ligand)
chain: LPICPGGAARCQVTLRDLFDRAVVLSHYIHNLSSEMFSEFDKRYTHGRGFITKAINSCHTSSLATPEDKEQAQQMNQKDFLSLIVSILRSWNEPLYHLVTEVRGMQEAPEAILSKAVEIEEQTKRLLEGMELIVSQVHPETKENEIYPVWSGLPSLQMADEESRLSAYYNLLHCLRRDSHKIDNYLKLLKCRIIHNNNC
- EC50, Ba/F3-PRLR proliferation assay [1]: 0.102 nM
- EC50, stimulation (proliferation) assay, Ba/F3-PRLR cell line PRLR-09 [1]: 54 pM
- EC50, stimulation (proliferation) assay, Ba/F3-PRLR cell line PRLR-32 [1]: 37.5 pM

B2: PRL S61A, Q71A, Q73A, G129R (ligand)
prolactin variant: B1 chain with S61A, Q71A, Q73A, G129R
notes: It is not in the first reading's list; also called rational designed mutant
- binding result [2]: binds

B3: PRL G129R (ligand)
chain: B1 chain with G129R
notes: also called [2H,15N]PRL-G129R; [2H,13C,15N]PRL-G129R
- EC50, Ba/F3-PRLR proliferation assay [1]: 3.2 nM
- highest proliferation rate relative to wtPRL, Ba/F3-PRLR proliferation assay [1]: 12 % of wtPRL
- EC50 (so in the source); inhibition of proliferation of Ba/F3-PRLR cells stimulated with 1 nM wtPRL, OD490nM [3]: 64.6 nM
- LOGEC50 (same fit) [3]: -7.19 LogM
- Kd [4]: 13.9 nM

B4: [PRL S33A, Q73L, G129R, K190R] (ligand)
chain: B1 chain with S33A, Q73L, G129R, K190R
- fold higher affinity than wt PRL and [PRL G129R] [5]: ~2 fold

B5: [PRL Q73L, M75T, N76S, F80L, G129R] (ligand)
chain: B1 chain with Q73L, M75T, N76S, F80L, G129R
notes: also called HTPN-62
- antagonist activity relative to [PRL G129R], Ba/F3-PRLR competition assay against 1 nM wtPRL [1]: ~4 fold
- fold higher affinity than wt PRL and [PRL G129R] [5]: ~2 fold
- EC50 (so in the source); inhibition of proliferation of Ba/F3-PRLR cells stimulated with 1 nM wtPRL, OD490nM [3]: 13.8 nM
- LOGEC50 (same fit) [3]: -7.86 LogM

B6: Ser-PRL Q73L, G129R, K190R (ligand)
chain: SLPICPGGAARCQVTLRDLFDRAVVLSHYIHNLSSEMFSEFDKRYTHGRGFITKAINSCHTSSLATPEDKEQALQMNQKDFLSLIVSILRSWNEPLYHLVTEVRGMQEAPEAILSKAVEIEEQTKRLLERMELIVSQVHPETKENEIYPVWSGLPSLQMADEESRLSAYYNLLHCLRRDSHKIDNYLKLLRCRIIHNNNC
- Kd [6]: 2.6 nM

B7: Ser-PRL G129R (ligand)
chain: B6 chain with L74Q, R191K
notes: The control row gives one KD under the double label 'PRL G129R/Ser-PRL G129R'
- Kd [4]: 13.9 nM

B8: Ser-PRL S33D, Q73L, M75T, N76S, F80L, G129R, K190R (ligand)
chain: B6 chain with S34D, M76T, N77S, F81L
- Kd [6]: 3.1 nM

B9: Ser-PRL Q73L M75T N76S F80L G129R (ligand)
chain: B6 chain with M76T, N77S, F81L, R191K
- Kd [7]: 3.6 nM
